Reference: PMC10556033

Assay: eIF4E2 co-IP, 4E-T and GIGYF2 immunoblot
Conditions: glycan lost; control: MEST cDNA (wild type)

B1: mesoderm-specific transcript (MEST), also named PEG1: MEST N163Q (protein)
parent chain: MVRRDRLRRMREWWVQVGLLAVPLLAAYLHIPPPQLSPALHSWKSSGKFFTYKGLRIFYQDSVGVVGSPEIVVLLHGFPTSSYDWYKIWEGLTLRFHRVIALDFLGFGFSDKPRPHHYSIFEQASIVEALLRHLGLQNRRINLLSHDYGDIVAQELLYRYKQNRSGRLTIKSLCLSNGGIFPETHRPLLLQKLLKDGGVLSPILTRLMNFFVFSRGLTPVFGPYTRPSESELWDMWAGIRNNDGNLVIDSLLQYINQRKKFRRRWVGALASVTIPIHFIYGPLDPVNPYPEFLELYRKTLPRSTVSILDDHISHYPQLEDPMGFLNAYMGFINSF
- other: eIF4E2-4E-T/GIGYF2 complex formation in cells: increases
